{
  "source": "the RNAGym collection of RNA variant scans (doi:10.1073/pnas.2313332121)",
  "parents": {"B1": {"name": "TPR 5TU (parent)", "chain": "GGAUCUUCUCGAUCUAACAAAAAAGACAAAUCUGCCACAAAGCUUGAGAGCAUCUUCGGAUGCAGAGGCGGCAGCCUUCGGUGGCGCGAUAGCGCCAACGUUCUCAACUAUGACACGCAAAACGCGUGCUCCGUUGAAUGGAGUUUAUCAUG"}},
  "note": "Variants at the floor of the assay were thinned out.",
  "data": [
    {"variants_of": "B1", "experiment": "polymerase ribozyme fitness, log enrichment relative to wild type (log ratio); higher = more active; in vitro selection for triplet polymerase activity", "procedure,_shortened": "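Each subunit of a heterodimeric triplet polymerase ribozyme was represented by a PCR-built, transcribed mutant library that underwent triplicate single-round in vitro selection with frozen incubation at −7 °C. Extended constructs were recovered by gel excision, streptavidin-bead capture and RT-PCR, and Illumina sequencing of input and output libraries kept genotypes with ≥10 input reads and ≥1 read per output. Fitness is the logarithm of genotype enrichment relative to wild-type enrichment, from inverse-variance-weighted replicate averages, with a logarithm base of 2.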", "values": [
      {"variant": "C38U A49C A60C U82G G83A", "polymerase ribozyme fitness (log ratio)": "≤ -4.2"},
      {"variant": "A39U A113C", "polymerase ribozyme fitness (log ratio)": -4.11},
      {"variant": "A39C C76G A137C", "polymerase ribozyme fitness (log ratio)": "≤ -4.2"},
      {"variant": "C38U C85U U146G", "polymerase ribozyme fitness (log ratio)": -0.571},
      {"variant": "C38A G83A", "polymerase ribozyme fitness (log ratio)": -0.746},
      {"variant": "C38U U61G C85A G94C C123A", "polymerase ribozyme fitness (log ratio)": -1.29},
      {"variant": "A40C C69G C75U A98U U135G U151G", "polymerase ribozyme fitness (log ratio)": "≤ -4.2"},
      {"variant": "C38U U55A G59C U135C", "polymerase ribozyme fitness (log ratio)": -1.98},
      {"variant": "C38U C95A C103U G143A", "polymerase ribozyme fitness (log ratio)": -3.18},
      {"variant": "A39G A49G G70A C87A G94A C99G G126A", "polymerase ribozyme fitness (log ratio)": "≤ -4.2"},
      {"variant": "C38A G50C C96A", "polymerase ribozyme fitness (log ratio)": -4.12},
      {"variant": "A40U U56A", "polymerase ribozyme fitness (log ratio)": -0.0589},
      {"variant": "A40U G86U C93U C149U", "polymerase ribozyme fitness (log ratio)": -3.56},
      {"variant": "A39C C105U G124A", "polymerase ribozyme fitness (log ratio)": -2.08},
      {"variant": "C38U G117U", "polymerase ribozyme fitness (log ratio)": 0.325},
      {"variant": "C38G G74C C87U", "polymerase ribozyme fitness (log ratio)": "≤ -4.2"},
      {"variant": "A39C G68A A89G G128U A138G", "polymerase ribozyme fitness (log ratio)": "≤ -4.2"},
      {"variant": "A39U A52G U61A A73U A115U A150C", "polymerase ribozyme fitness (log ratio)": "≤ -4.2"},
      {"variant": "A40U C95U C129A U134C", "polymerase ribozyme fitness (log ratio)": -3.65},
      {"variant": "A40C U55G G84C C96U C103U C118U", "polymerase ribozyme fitness (log ratio)": -3.51},
      {"variant": "A39U A52G C79G G84C C108U", "polymerase ribozyme fitness (log ratio)": "≤ -4.2"},
      {"variant": "A40U C95U G143U", "polymerase ribozyme fitness (log ratio)": "≤ -4.2"},
      {"variant": "C38U G65C G70U C85G U111G A115U U127G G140C U146G", "polymerase ribozyme fitness (log ratio)": "≤ -4.2"},
      {"variant": "A39U G126C", "polymerase ribozyme fitness (log ratio)": -0.865},
      {"variant": "A40C U45A C54U", "polymerase ribozyme fitness (log ratio)": "≤ -4.2"},
      {"variant": "A40C U77C C116A C125U", "polymerase ribozyme fitness (log ratio)": "≤ -4.2"},
      {"variant": "C38U C63G A97U G143C", "polymerase ribozyme fitness (log ratio)": -3.67},
      {"variant": "A39C G86U", "polymerase ribozyme fitness (log ratio)": -4.18},
      {"variant": "C38U G84A U139A", "polymerase ribozyme fitness (log ratio)": "≤ -4.2"},
      {"variant": "A40C C93A G143A", "polymerase ribozyme fitness (log ratio)": -3.22},
      {"variant": "A39C A142U", "polymerase ribozyme fitness (log ratio)": -3.34},
      {"variant": "A40G A64U U134G A142C", "polymerase ribozyme fitness (log ratio)": "≤ -4.2"},
      {"variant": "A39U U61A A64C G86C", "polymerase ribozyme fitness (log ratio)": "≤ -4.2"},
      {"variant": "C38U G126U", "polymerase ribozyme fitness (log ratio)": -0.118},
      {"variant": "A39C A41C G65A C96A C103A U111G", "polymerase ribozyme fitness (log ratio)": "≤ -4.2"},
      {"variant": "A39G A40G A41U G58A G59U U61A C79A U144A G152C", "polymerase ribozyme fitness (log ratio)": "≤ -4.2"},
      {"variant": "C38U A73U C93U A107U G117U", "polymerase ribozyme fitness (log ratio)": "≤ -4.2"},
      {"variant": "A40C U53A A110C", "polymerase ribozyme fitness (log ratio)": -4.04},
      {"variant": "A40C U90C", "polymerase ribozyme fitness (log ratio)": -4.09},
      {"variant": "A40C C87U G117C", "polymerase ribozyme fitness (log ratio)": -0.313},
      {"variant": "A40U G80A C87A U127G A147C", "polymerase ribozyme fitness (log ratio)": "≤ -4.2"},
      {"variant": "A39G G42C A64U G84C C85U C103G C108U G117C A147G", "polymerase ribozyme fitness (log ratio)": "≤ -4.2"},
      {"variant": "A40C C51U G84A", "polymerase ribozyme fitness (log ratio)": -0.15},
      {"variant": "A40U U55A G58C C85G A119U", "polymerase ribozyme fitness (log ratio)": -2.59},
      {"variant": "A39C G50C G59C A97U C129A C149U", "polymerase ribozyme fitness (log ratio)": "≤ -4.2"},
      {"variant": "A40G A97G", "polymerase ribozyme fitness (log ratio)": -1.8},
      {"variant": "A40C C85G C87U C93U U148C", "polymerase ribozyme fitness (log ratio)": "≤ -4.2"},
      {"variant": "A39G U109C U144A", "polymerase ribozyme fitness (log ratio)": -3.59},
      {"variant": "A40C C76U", "polymerase ribozyme fitness (log ratio)": 0.0931},
      {"variant": "C38G A41U C79U G92C C123A", "polymerase ribozyme fitness (log ratio)": "≤ -4.2"},
      {"variant": "A39U A47G U139G U151G", "polymerase ribozyme fitness (log ratio)": "≤ -4.2"},
      {"variant": "C38U A120U A142U", "polymerase ribozyme fitness (log ratio)": -0.329},
      {"variant": "A40U U61A A122G", "polymerase ribozyme fitness (log ratio)": -1.1},
      {"variant": "A39U U53A", "polymerase ribozyme fitness (log ratio)": -2.91},
      {"variant": "C38U G46U G84A U127G G143C", "polymerase ribozyme fitness (log ratio)": "≤ -4.2"},
      {"variant": "A40C C85G C108G", "polymerase ribozyme fitness (log ratio)": "≤ -4.2"},
      {"variant": "A39C A64G C75G C85U G124A", "polymerase ribozyme fitness (log ratio)": "≤ -4.2"},
      {"variant": "C38U C105U C118G U139G", "polymerase ribozyme fitness (log ratio)": -1.24},
      {"variant": "A40G U55G U56A G88C", "polymerase ribozyme fitness (log ratio)": "≤ -4.2"},
      {"variant": "A39U A49C U55A C87U C116G", "polymerase ribozyme fitness (log ratio)": "≤ -4.2"},
      {"variant": "A40U U56A C85G C114G", "polymerase ribozyme fitness (log ratio)": -3.79},
      {"variant": "A40U C76U", "polymerase ribozyme fitness (log ratio)": -0.102},
      {"variant": "C38A U53A C87U", "polymerase ribozyme fitness (log ratio)": -1.39},
      {"variant": "A40U A47C C51U U82C C118G", "polymerase ribozyme fitness (log ratio)": -2.44},
      {"variant": "A39G A41C", "polymerase ribozyme fitness (log ratio)": -1.44},
      {"variant": "A39G G50A G81C U82C G92C G140A U151C G152C", "polymerase ribozyme fitness (log ratio)": "≤ -4.2"},
      {"variant": "A40C U55A A107G A142G", "polymerase ribozyme fitness (log ratio)": "≤ -4.2"},
      {"variant": "A40C C75A C114G", "polymerase ribozyme fitness (log ratio)": "≤ -4.2"},
      {"variant": "A39U U55G G58U U78G C85U U90C C105A G136U A142C", "polymerase ribozyme fitness (log ratio)": "≤ -4.2"},
      {"variant": "C38U G42C A52U U61G G133U", "polymerase ribozyme fitness (log ratio)": "≤ -4.2"},
      {"variant": "A40C U55G C85U", "polymerase ribozyme fitness (log ratio)": 0.238},
      {"variant": "C38U C63U A73G C118U A150G", "polymerase ribozyme fitness (log ratio)": -2.88},
      {"variant": "A40U G50U A60C A73G C85U U151G", "polymerase ribozyme fitness (log ratio)": "≤ -4.2"},
      {"variant": "C38A G83U C96G U144A", "polymerase ribozyme fitness (log ratio)": -0.619},
      {"variant": "A39U U61G C85U C93U U134A", "polymerase ribozyme fitness (log ratio)": "≤ -4.2"},
      {"variant": "A39G C87A C108U U135C", "polymerase ribozyme fitness (log ratio)": "≤ -4.2"},
      {"variant": "C38U C76U C85G C96A C103A C114U C132U", "polymerase ribozyme fitness (log ratio)": -4.19},
      {"variant": "C38G C95A A150U", "polymerase ribozyme fitness (log ratio)": -0.802},
      {"variant": "A40U G71U C85G", "polymerase ribozyme fitness (log ratio)": "≤ -4.2"},
      {"variant": "C38U A52C A120U", "polymerase ribozyme fitness (log ratio)": -1.22},
      {"variant": "A40U C63A C72A C76A C103G", "polymerase ribozyme fitness (log ratio)": "≤ -4.2"},
      {"variant": "A39C A40G G50C C75A C85G", "polymerase ribozyme fitness (log ratio)": "≤ -4.2"},
      {"variant": "A40U C57U U61A U82G A98C A106U C116U A121U C132U A138C", "polymerase ribozyme fitness (log ratio)": "≤ -4.2"},
      {"variant": "C38U G84U A91U", "polymerase ribozyme fitness (log ratio)": "≤ -4.2"}
    ]}
  ]
}
